The text below walks through data of patent US20060094101A1 (Pfizer, published 2006).

To fix the notation:
B4: p53, yeast two-hybrid control bait (other, UniProt P04386 1-147, looked up)
chain: MKLLSSIEQACDICRLKKLKCSKEKPKCAKCLKNNWECRYSPKTKRSPLTRAHLTEVESRLERLEQLFLLIFPREDLDMILKMDSLQDIKALLTGLFVQDNVNKDAVTDRLASVETDMPLTLRQHRISATSSSEESSNKGQRQLTVSPVTETPGPVAPAPATPWPLSSFVPSQKTYQGNYGFHLGFLQSGTAKSVMCTYSPPLNKLFCQLAKTCPVQLWVSATPPAGSRVRAMAIYKKSQHMTEVVRRCPHHERCSDGDGLAPPQHLIRVEGNLYPEYLEDRQTFRHSVVVPYEPPEAGSEYTTIHYKYMCNSSCMGGMNRRPILTIITLEDSSGNLLGRDSFEVRVCACPGRDRRTEEENFRKKEVLCPELPPGSAKRALPTCTSASPPQKKKPLDGEYFTLKIRGRKRFEMFRELNEALELKDAHATEESGDSRAHSSYLKTKKGQSTSRHKKTMVKKVGPDSD
notes: Specificity control bait
B5: Lamin (Clontech), yeast two-hybrid control bait (other, UniProt P04386 1-147, looked up)
chain: MKLLSSIEQACDICRLKKLKCSKEKPKCAKCLKNNWECRYSPKTKRSPLTRAHLTEVESRLERLEQLFLLIFPREDLDMILKMDSLQDIKALLTGLFVQDNVNKDAVTDRLASVETDMPLTLRQHRISATSSSEESSNKGQRQLTVSSEEVVSREVSGIKAAYEAELGDARKTLDSVAKERARLQLELSKVREEFKELKARNTKKEGDLIAAQARLKDLEALLNSKEAALSTALSEKRTLEGELHDLRGQVAKLEAALGEAKKQLQDEMLRRVDAENRLQTMKEELDFQKNIYSEELRETKRRHETRLVEID
notes: Specificity control bait; also called lamin (L)

In assay [1] the target is B5. Kind of assay: yeast two-hybrid, growth and color on selective media. The text has this:
(§1) Independent sequences were transformed into bacteria (DH5 α) from which DNA was subsequently isolated. Next, the DNA was transformed into yeast strain AH109. […] Each independent sequence strain transformed in AH109 was mated with Y187 yeast transformed with each of the three baits. Independent clones which interacted with MK2 and MK2 K93R, but not with empty vector pGBKT7, TPL2, p53, or Lamin, as assayed by their growth on SD/-Ade/-His/-Leu/-Trp and blue color on SD/-Leu/-Trp X-α-GAL, were identified as clones which included DNA inserts encoding specific MK2 interacting proteins (FIG. 9A). […] One protein encoded by an independent DNA sequence characterized was “similar to smoothelin” (STS).

In assay [2] the target is T1, TPL2, yeast two-hybrid control bait (yeast, UniProt P04386 1-147; P41279 1-467, limits assumed).
T1 construct: Specificity control bait
Kind of assay: yeast two-hybrid, growth on SD/-Ade/-His/-Leu/-Trp and blue color on SD/-Leu/-Trp X-α-GAL.
Excerpt: as §1

Assay [3] concerns the target B4. The description is as above.
Excerpt: as §1

The target of the next assay is MYC-tagged MK2 (UniProt P49137 1-400, limits assumed). Kind of assay: cell-based or functional assay.
In assay [4] the target is T2, similar to smoothelin (STS), yeast two-hybrid library clone (yeast; human, UniProt P53814 2-868).
T2 construct: Clone from a pretransformed human bone marrow cDNA library
Kind of assay: yeast two-hybrid, growth on SD/-Ade/-His/-Leu/-Trp and blue color on SD/-Leu/-Trp X-α-GAL.
Excerpt: as §1

Assay [5] addresses T2, similar to smoothelin (STS), yeast …. Kind of assay: yeast two-hybrid, growth and color on selective media.
Excerpt: as §1

T2 sequence (P53814 other isoform, or with tags, fused parts or gaps limits assumed): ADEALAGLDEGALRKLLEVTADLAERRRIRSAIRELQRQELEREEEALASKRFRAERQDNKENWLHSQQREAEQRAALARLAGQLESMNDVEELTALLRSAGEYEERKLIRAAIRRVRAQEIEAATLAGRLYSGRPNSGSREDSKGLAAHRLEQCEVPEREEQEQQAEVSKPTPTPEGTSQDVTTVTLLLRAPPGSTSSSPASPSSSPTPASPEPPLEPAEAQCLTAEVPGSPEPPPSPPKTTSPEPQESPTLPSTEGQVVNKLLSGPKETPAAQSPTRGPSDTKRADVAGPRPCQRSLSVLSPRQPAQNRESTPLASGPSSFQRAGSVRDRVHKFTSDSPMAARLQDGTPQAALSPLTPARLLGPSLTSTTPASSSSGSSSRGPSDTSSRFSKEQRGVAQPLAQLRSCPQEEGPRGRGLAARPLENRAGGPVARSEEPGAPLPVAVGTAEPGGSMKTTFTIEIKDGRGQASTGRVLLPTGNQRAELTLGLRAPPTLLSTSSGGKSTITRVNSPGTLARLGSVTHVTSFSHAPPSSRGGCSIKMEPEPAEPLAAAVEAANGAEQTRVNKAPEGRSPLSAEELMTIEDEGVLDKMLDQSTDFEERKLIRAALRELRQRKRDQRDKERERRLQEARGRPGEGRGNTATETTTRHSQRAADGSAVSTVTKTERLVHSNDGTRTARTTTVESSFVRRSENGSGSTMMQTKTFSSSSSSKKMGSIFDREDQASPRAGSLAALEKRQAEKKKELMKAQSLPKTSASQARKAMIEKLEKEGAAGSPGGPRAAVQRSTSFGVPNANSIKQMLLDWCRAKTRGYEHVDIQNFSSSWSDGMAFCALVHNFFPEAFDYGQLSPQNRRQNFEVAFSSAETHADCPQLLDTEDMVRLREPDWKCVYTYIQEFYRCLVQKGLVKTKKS
Sequence of MYC-tagged MK2 (P49137 whole entry): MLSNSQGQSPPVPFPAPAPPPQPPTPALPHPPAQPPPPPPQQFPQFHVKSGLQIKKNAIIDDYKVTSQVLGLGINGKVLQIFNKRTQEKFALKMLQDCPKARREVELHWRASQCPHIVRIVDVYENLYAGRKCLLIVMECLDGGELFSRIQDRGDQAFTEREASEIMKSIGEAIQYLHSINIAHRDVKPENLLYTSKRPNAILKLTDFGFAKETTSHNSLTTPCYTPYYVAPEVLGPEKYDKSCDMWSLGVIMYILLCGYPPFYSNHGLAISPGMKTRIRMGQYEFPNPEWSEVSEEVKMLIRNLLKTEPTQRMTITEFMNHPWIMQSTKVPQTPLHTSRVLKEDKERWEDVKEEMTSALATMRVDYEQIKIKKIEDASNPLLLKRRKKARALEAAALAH

B1: human polyhomeotic 2 (HPH2), yeast two-hybrid library clone (other, not shown: large carriers)
chain: MCLRGGCSPRAPAAAPQPRPPPALPPRPRAPVPASRPGRPLLTPARPCGRMRRGSPGPRLGGSRGERRRPAGRDPARVGPGQGLRRPARPGPAAWTETGQGIVHALTDLSIPGMTSGNGNSASSIAGTAPQNGENKPPQAIVKPQILTHVIEGFVIQEGADVSRWDARLLVGNLKKKYAQGFLPEKLPQQDHTTTTDSEMEEPYLQESKEEGAPLKLKCELCGRVDFAYKFKRSKRFCSMACAKRYNVGCTKRVGLFHSDRSKLQKAGAATHNRRRPAKPVCHHLPRIPRSSQQALCPFRLLLLCVTHSQEDSSRCSDNSSYEEPLSPISASSSTSAGDKASGTWSSPTCICGTWWAWDTTSCQVSHQVNVEDVYEFIRSLPGCQEIAEEFRAQEIDGQALLLLKEDHLMSVMNIKLGPALKIYARISMLKDS
notes: Clone from a pretransformed human bone marrow cDNA library; also called human polyhomeotic homolog 2
Take B1: the binding result in assay [1], in assay [2] and in assay [3] was “no binding” each time.

B2: V5-tagged Shc (V5-p66 Shc A) (other, not shown: small tags and cut ends)
chain: MDLLPPKPKYNPLRNESLSSLEEGASGSTPPEELPSPSASSLGPILPPLPGDDSPLPCVPSFPRMSNLKLANPAGGPWGLKGSQERLLKMGKGVQGQPFGLRPLAPPPDMNKLSGGGGRRTRVEGGQLGGEEWTRHGSFVNKPTRGWLHPNDKVMGPGVSYLVRYMGCVEVLQSMRALDFNTRTQVTREAISLVCEAVPGAKGATRRRKPCSRPLSSILGRSNLKFAGMPITLTVSTSSLNLMAADCKQIIANHHMQSISFASGGDPDTAEYVAYVAKDPVNQRACHILECPEGLAQDVISTIGQAFELRFKQYLRNPPKLVTPHDRMAGFDGSAWDEEEEEPPDHQYYNDFPGKEPPLGGVVDMRLREGAARPTLPSAQMSSHLGATLPIGQHAAGDHEVRKQMLPPPPCPGRELFDDPSYVNIQNLDKARQAGGGAGPPNPSLNGSAPRDLFDMKPFEDALRVPPPPQSMSMAEQLQGEPWFHGKLSRREAEALLQLNGDFLVRESTTTPGQYVLTGLQSGQPKHLLLVDPEGVVRTKDHRFESVSHLISYHMDNHLPIISAGSELCLQQPVDRKV
With B2, in the assay with MYC-tagged MK2, the “TNF-α biosynthesis (secreted TNF-α by ELISA) in LPS-stimulated RAW264.7 cells” value was 1.5 fold and the “basal pHsp 27 levels in HeLa cells (immunoblot, densitometry)” value is 3 fold.

B3: src homology and collagen (Shc; Shc A), yeast two-hybrid library clone (other, not shown: large carriers)
chain: MDLLPPKPKYNPLRNESLSSLEEGASGSTPPEELPSPSASSLGPILPPLPGDDSPLPCVPSFPRMSNLKLANPAGGPWGLKGSQERLLKMGKGVQGQPFGLRPLAPPPDMNKLSGGGGRRTRVEGGQLGGEEWTRHGSFVNKPTRGWLHPNDKVMGPGVSYLVRYMGCVEVLQSMRALDFNTRTQVTREAISLVCEAVPGAKGATRRRKPCSRPLSSILGRSNLKFAGMPITLTVSTSSLNLMAADCKQIIANHHMQSISFASGGDPDTAEYVAYVAKDPVNQRACHILECPEGLAQDVISTIGQAFELRFKQYLRNPPKLVTPHDRMAGFDGSAWDEEEEEPPDHQYYNDFPGKEPPLGGVVDMRLREGAARPTLPSAQMSSHLGATLPIGQHAAGDHEVRKQMLPPPPCPGRELFDDPSYVNIQNLDKARQAGGGAGPPNPSLNGSAPRDLFDMKPFEDALRVPPPPQSMSMAEQLQGEPWFHGKLSRREAEALLQLNGDFLVRESTTTPGQYVLTGLQSGQPKHLLLVDPEGVVRTKDHRFESVSHLISYHMDNHLPIISAGSELCLQQPVDRKV
notes: Clone from a pretransformed human bone marrow cDNA library
On to B3, for which the binding result in assay [1], in assay [2] and in assay [3] was “no binding” in each case.
Turning to B4, in assay [4], the binding result is “no binding”.
For the molecule B5, in assay [5], the binding result is “no binding”.
